A short description of this data set: label from the status in PepcDB records.

The values that follow come from a protein production outcome set (Wang et al. 2014).
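Also: failed if final PepcDB status was selected cloned or expressed and not failed if soluble or beyond.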

For “KKPEGKPDQKFDQKQELGRVIHLSNLPHSGYSDSAVLKLAEPYGKIKNYILMRMKSQAFIEMETREDAMAMVDHCLKKALWFQGRCVKVDLSEKYKKLV”, the protein production result is on record as “not failed”.

For the sequence “KKYSYAVTTCIKHINKNVYDGISLNELANHLEITPTYLSKLFKKEMGITLSEYIQRERVEEAKKLLTLTTYSLSDICAWLNFNDQSYFIRVFKKITSMTPRQYREKYTV”, the protein production entry is listed as “failed”.

Take “KLGMKPVSDVSRVTIKRAKNVLFVISKPDVYKSPNAETYVIFGEAKVDDLSSQLQTQAAQRFKMPDVTSMLPNAGSEATMAPLAEEEDEDDVDDTGVEARDIDLVMTQAGVSKAKAVSALKANDGDIVSAIMELTT”: the protein production result was “failed”.

With “KLLAEALELTEDQYVVSFQSQFGRAKWVTPSTQDLFGKLPKQGVTELDVFCPGFLADCLETMEEIALMGREQFYEAGGKSYRYIPCLNDNPDWIDALVALAEENLGSWR”, the protein production result is “failed”.

“KLPFDYQVNSTRHFMRELNRLGVTGAIDAGGGFQNYPDDYAVIQKLDEEGLLTIRLAYNLFTQKPKGEKDDFLNWTKTSKYKQGNDYFRHNGAGEMLVFSAADFEDFRVPRPDMPPEMEGELEEVVRILVQNKWPWRLHATYDETISRALDVFEKVNQDTPLDGLHWFFDHAETISDRSIDRIAALGGGIAVQHRMAYQGEYFVERYGFGAAEATPPVRRILDSGVKVSAGTDATRVASYNPWVSLSWLVTGRTVGGLRITPQRNCLDRETALRMWTENVTWFSNEEGN”: the protein production entry is reported as “failed”.

Turning to “KLRDLDIIVTAPPAPGWGGRYWILVKLTTDDGITGWGECYAASVGPEAMRAVIEDVFARHMEGENPENIELMFRRVYSSGFTQRPDLTAIGAFSGLEIACWDILGKARGRPVWALLGGKMNPRIRAYTYLYPLPHHPITPFWTSADMAAESAADCVARGYTAVKFDPAGPYTLRGGHMPAMTDISLSVEFCRKIRAAVGDKADLLFGTHGQFTTAGAIRLGQAIEPYSPLWYEEPVPPDNVGAMAQVARAVRIPVATGERLTTKAEFAPVLREGAAAILQPALGRAGGIWEMKKVAAMAEVYNAQMAPHLYAGPVEWAANVHFAASIPNILMCESIETPFHDALIKGSIRVEGGYITPPEAPGLGIEVDEALARANPYHGTGLHLEMQEASCDYTNGNSFAGGAPHEEG”, the protein production entry is reported as “not failed”.

“KMPSPYSHKEFVKEIAPTAQKLSKIYGVRSSIIIGQAALDSHFGSTLLASKYHNLFSIEASPGQGAVRLKSHEYKNGRWQEVTNRYLVYESWKESLYDYMAILHGNKIWDKALYTTMMTSSGYKTVARALQAAGFNSDPNYADKLIAVIEENNL”: the protein production entry is “not failed”.

Consider “KRIQYSVITILVLLIAVILIYMFSPLSKIAHVNINGNNHVSTSKINKVLGVKNDSRMYTFSKKNAINDLEEDPLIKSVEIHKQLPNTLNVDITENEIIALVKYKGKYLPLLENGKLLKGSNDVKINDAPVMDGFKGTKEDDMIKALSEMTPEVRRYIAEVTYAPSKNKQSRIELFTTDGLQVIGDISTISKKMKYYPQMSQSLSRDSSGKLKTRGYIDLSVGA”, for which the protein production entry was “failed”.

Regarding “KRREIPLKVLVKAVLFACMLMRKTMASRVRVTILFATETGKSEALAWDLGALFSCAFNPKVVCMDKY”, the protein production result is on record as “failed”.

Take “KRRIRQLELQVRMLEADKERLERELSRLRSEMSRLRQPPAFAGSVIEVLDDDRAIVQNYNGPRFVVRIAPWIDKSKLRPGTRVALDQRTMAIIEILPASKDPAVLGFEVVERPN”: the protein production result is given as “not failed”.

For the sequence “KRVFGFVSAKGGDGGSCIAANFAFALSQEPDIHVLAVDISLPFGDLDMYLSGNTHSQDLADISNASDRLDKSLLDTMVQHISPSLDLIPSPATFEKIVNIEPERVSDLIHIAASFYDYIIVDFGASIDHVGVWVLEHLDELCIVTTPSLQSLRRAGQLLKLCKEFEKPISRIEIILNRADTNSRITSDEIEKVIGRPISKRIPQDEDAMQESLLSGQSVLKVAPKSQLSKTIVDWALHLNGVSRPNKRSIWERLKIK”, the protein production entry is on record as “not failed”.

With “KSPGWMKHLDQEQAVHSESETYGISSWVYSARLPFHPQRFQHFLAHPWTNGTLLRCKGYIWNAKCYQDIGMLVQTGGQFEWEIVGRWWNFINQSDWPQDHYRRDSIFEKWDERTGDCRQEIVFIGQNIDWNTLKHQLDDCLLTLQEIEDGPEAWLNY”, the protein production result is given as “failed”.

In the case of “KVILYARVSSSTQKDELVNQVKYLEEQVKEYDLVITDIGSGLNMKRKGFLKLLRMILNNEVSRVVVAYPDRLVRVGFEILEEVCKAHNCEIVVLNQEDKEEELVEDLMSALVSFSGKLYGMRSHEYEKVKKCAEELKNW”, the protein production result was “not failed”.

As for “KVKELNLHELCAVCLEDFKPRDELGICPCKHAFHRKCLIKWLEVRKVCPLCNMPVLQLAQL”, the protein production entry was “not failed”.

“KVSVNDIMVPRNEIVGIDINDDWKSIVRQLTHSPHGRIVLYRDSLDDAISMLRVREAYRLMTEKKEFTKEIMLRAADEIYFVPEGTPLSTQLVKFQRNKKKVGLVVDEYGDIQGLVTVEDILEEIVGDFT”: the protein production entry is recorded as “not failed”.

For the sequence “KYTQNNFITGVRAINEFCLKSSDLEQLRKIRRRSPHEDTESFTVYLRSDVEAKSLEVWGSPEALAREKKLRKEAEIEYRERLFRNQKILREYRD”, the protein production result was “not failed”.

Consider “LDAILIADDEGCYVDVNAAACELFGVSREELLASTIADFAAPEFNFTQAWQQFREQEQMSGEFQLHRPNGTVRATEFAAVANFIPHRHLSIIRDVSDRQQAKANLQNSEQRLQLALSASS”, for which the protein production entry was “failed”.

As for “LEKAGDSVEITNEEAVIQYVNPAFENITLYNAREAMNKTVASLLRSPVEDAQLFEEINQTLKSGNTWKGQIRSRKKDGSYWVAQTIIVPVMDDELGRITQHIAIKQDIT”, the protein production entry is on record as “failed”.

In the case of “LESKIVDISTRFINTPIDDLDREIEAALQAIGAFVDADRSYVFLFDDEAATMSNTHEWRTEATASTQSRLQNIPYAETPWFMARMRRREGPLRVPRLEDLPPDAAGLRQRLEAGNVQSLLVLPMLNDQDLIGFVGFDAVRQQRDWDADTVMLLRVLSDAISNALQRKTAEKEMLAAKEEAEDANRMKS”, the protein production entry is “failed”.

Regarding “LFTHRPIHTHTVTFSGGGENSAMYASIGFYDDRGWTLADHVKRITANIKNSFYWNEDKIKATISAQGNLRNQNSPGTIPQRRNTVIGTFERDFDINPFSYALSTSRTLRPHNADGKREFYRNNWAPFNILNEYENNYLKTEVLDLKLQGELSYRLNDHIEVKGLAMVRHAVTKSSHFIAEASNVVQAFRANETPYVARENIYLLKNKDDPMQLPGVALTHGGIFNKTETSLRSYLGRLALDYNRQLSEHNIRAFGFTEIRYADRSMNPFQGYGIQYDRGNQVFSNPLIFEKLANEGDTYFSLTERYERGVTLSGSATYGYAEKYIFNGVFNYEGANTAGKYSRSRWLPTWNIGAKWNLDQEKFMRKHTTISRLALRTSYGLTAKMNEQAVNSTTVFKHVMVNRTLLKDRENALRILHLENRDLTWEKMYELNFGLELGLFGNRISATFDVYQRNSFDLIDLIRTSGVGGQYYKYANFGDMRTRGVELAIQTQNILTDKFSWSTTVT”, the protein production entry is “failed”.

On to “LGGVAPEQVAYAVEQAGKRLQERDNAGVKVRPARLTDLDALEGMVAYWAGLGENLPRNRNELVRDIGSFAVAEHHGEVTGCASLYVYDSGLAEIRSLGVEAGWQSQGQGKAIVQHLVEKAREMAIKKVFVLTRVPEFFMKQDFIPTSRSLLPEKVLKDCDQCPRQH”, for which the protein production entry is recorded as “failed”.

“LGIAINEMIRMLRAARDEDDRRNWLKDGYGQVSAALTGDLTTEQLADAAIGLIGRYLDAGRGVFYLYRDAEQRLDLIGSYMYTERNNLGASFALGEGAVGQVARERKPIILEVSGDDAAPIVTGTMLALPRYTYTYPLLHEKELVGVIELSSFDHFDERKLEFLANVGGMLASFL”: the protein production result is “failed”.

With “LGNAMNIPAPIRIEAFDNSNIMGTNPVSAMVVFIDGRPAKNEYRKYKIKTVQGPDDYASMREVIYRRYSRVLKEGLPFPDLILIDGGKGQVDVAKDVLANQLGVDIPVAGLAKNDKHKTSELLFGPNLEVVPLERNSQEFFLLQRIQDEVHRFAI”, the protein production result is “not failed”.

On to “LKCSTVVCVICLEKPKYRCPACRVPYCSVVCFRKHKEQCNPET”, for which the protein production result was “not failed”.

As for “LKLEVVEDKQYGRLANRIENVVSQERTRKKFESLVSDSPDGIVHLTTNGTILSVNPSMAGRLGADPDTLVGQQLSAVMDSEAANQRLEAGKSAVENGTATRSEDAVGGRHYHNQYIPVDSHR”, the protein production result was “failed”.

“LKYILETKLEEERNHLEELLEKVEEDYEGINYDEVLEALKLFKDNYELPKSKIKRKIRIFLIKENILFLNPQKGTLKPQSYLVWNAIKRML”: the protein production entry is given as “not failed”.

Regarding “LLLTRPDEECAALAASLGEAGVHSSSLPLLAIDPLEETPEQRTLMLDLDRYCAVVVVSKPAARLGLERLDRYWPQPPQQTWCSVGAATAAILEAYGLDVTYPEQGDDSEALLALPAFQDSLRVHDPKVLIMRGEGGREFLAERLRGQGVQVDYLPLYRRRAPDYPAGELLARVRAERLNGLVVSSGQGLQNLYQLAAADWPEIGRLPLFVPSPRVAEMARELGAQRVIDCRGASAPALLAALTSAA”, the protein production entry is “failed”.

On to “LPDQRTVLYVHGGAWFQDPLENHFEYLDLLVDALDARVIMPVYPKIPHRDYRTTFELLTKIYKRLLTKIDEPENLVIIGDSAGGQIALAFAQMLKKEQLSQPGHIVLISPVLDATFKNPEARKYEKEDPMLGIDGSKYLVELWAGDAPLDDYKMSPMNGDLEGLGHITLTVGTKETLYPDAVKFSHMLNDKGIKHQFIPGYNLFHIYPLFPIPERQRFLEQLKKIIVTKEL”, for which the protein production result is on record as “not failed”.

As for “LPIIVKWGGQEYSVTTLSKDDTVLDLKQFLKTLTGVLPERQKLLGLKVKGKPAENDVKLGALKLKPNTKIMMMGTRE”, the protein production entry is on record as “not failed”.

With “LPLTDALRKALAEAPKHTANIARKRHILFIGKLMRDQDQEAILVLLDQLDASTRQYNERFHNLERWRDRLIAGDDADLEKFVIEYPDADRQQLRSLIRQAQHEVARNKP”, the protein production entry is “failed”.

For “LPSFRHKVFALVLVGVFVGLGAYLVYMSKAYSYLSDDPRVCINCHVMGPYYATWQHSSHAMRATCNDCHVPHNSIFSKYYFKASDGLRHSYVFTMRNEPQRMQAISASQAVIYDNCVRCHAQLNQEFVRTGMLTRADIRTAEEKACWDCHRDVPHGGKNS”, the protein production entry is reported as “failed”.

Regarding “LQASCSDDQEHRLGSLDFYTGVFALEKSRIAEISNRATLELQKMATSGEPMWLRSVETGREILNYDEYLKEFPQAQASSFPGRKTIEASRDAGIVFMDAHKLAQSFMDVGQWKETFACLISKAATVDVIRQGEGPSRIDGAIQLMFGEMQLLTPVVPTREVYFVRSCRQLSPEKWAIVDVSVSVEDSNTEKEASLLKCRKLPSGCIIEDTSNGHSKVTWVEHLDVSASTVQPLFRSLVNTGLAFGARHWVATLQLHCERLVFFMATNVPTKDSLGVTTLAGRKSVLKMAQRMTQSFYRAIAASSYHQWTKITTKTGQDMRVSSRKNV”, the protein production entry was “not failed”.

With “LRELDWFARRGLKEPNLAELLDLVALGSVADVVPLDANNRILVHQGLARIRAGRARPGLRALLEVAGRPPVRITSTDLGFILGPRLNAAGRLDDMSLGIECLLCDDEALARDMAVQLDQLNQDRKAIEQGMQREALAQLKELSLEQLPFGLCLFDADWHQGVIGILASRLKERYHRPTIAFADAGDGSLKGSARSIPGFHIRDALDAVAARHPGLISKFGGHAMAAGLSLPQENFGAFSAAFDAEVRRQLAEEDLAGRLLSDGQLSIQEFHLELARALRQAGPWGQHFPEPMFHGVFQLVQQRIVGERHLKLVLKSECGSLQLDGIAFNIDREQWPNPTVRWAELAYKLDVNEFRGQESVQLMIVHMAPR”, the protein production entry is “failed”.
